Test results: IntAct's records for PubMed 16362034

B1: ETS-like protein pointed (Drosophila melanogaster (Fruit fly)), P51023 (parent)
chain: MELAICKTDLSATKFMLPPALPSSAAIGSSSAVASTASHFLDKAAHELFQLNAINGHLFKSPASSHLNSVGSPSILSQLNGIGNSGNHSGQVSTMRLKKNRKVTFLSSLVESKNIFIKEEPIHGCKDLCSLSDISDHEASLEVPTALPPLTPGTNRKVNEVLKASFASWEKEVQKCNITKDPREWTEEHVIYWLNWAKNEFSLVSMNLDPFYKMKGRAMVDLGKEKFLAITPPFTGDILWEHLDILQKDCEKPNEDIVHGNSFESATTASVCGSDHQVANYPNETHANSNNSSINSRLSMDYVTSAGNSDNKNFHRATPHSHNGYNTSNTHDRINNSTPPQQQQSQQPTVNGSGSASSNNNNSMLPPAVQQSNNENNNTSSSNTNNSSNNNNNSGGSNNSNAGSNNNNNNNNNINFMAAAAIFQHHLKEEPGTQNGNIGGYGGGSNSQNDPTDLSSYGLPAHLAAYGGGSGSGPTGGRSSGGGGDESDYHSTISAQDHQSQQSSGGNGSGGASGGSTGNSNGYLDSSSEFYGSYAGRNRFHDGYPPEFTPYDAQSFQSMGPQPTAMDQWGAAHAHQHPAAYMSTLGLDKGLLGGYTTQGGVPCFTGSGPIQLWQFLLELLLDKTCQSFISWTGDGWEFKLTDPDEVARRWGIRKNKPKMNYEKLSRGLRYYYDKNIIHKTAGKRYVYRFVCDLQNLVGHTPEELVAKYDLKIEKKDVD

Variants of: B1
Conditions: with erka_drome rl

Row | Variant | effect of a mutation on the interaction
1 | T151A | disrupting interaction
2 | F234A | decreasing interaction
3 | L228R | decreasing interaction
